According to patent publication US20250000936A1, “TREATMENT OF GEOGRAPHIC ATROPHY” (Apellis Pharmaceuticals, Inc., priority 2021, published 2025):
Read-outs that look alike come from different tables or passages of the source.

How the values were obtained:
[1] = system: patients with geographic atrophy (GA) secondary to age-related macular degeneration (AMD); test: OAKS Phase 3 study: safety
Method: (§1) All randomized subjects returned every month to the clinical site for assessments and additional pegcetacoplan or sham injections according to their randomization scheme until Month 12. From Month 12 onwards, subjects return to the clinical site based on their randomized treatment schedule (monthly or EOM) and follow the treatment regimen and assessments outlined in the Visit Schedule until Month 24. Safety was assessed throughout the study by a number of evaluations including: monitoring of AEs, preinjection and postinjection monitoring, blood and urine samples collected, physical examination, vital signs, and follow-up phone calls. Blood samples were also be collected for anti-therapeutic antibodies, genotyping, and clinical repository (if the subject consented to this portion).
(§2) The Safety set consisted of all subjects randomized who received at least one injection of pegcetacoplan or sham. Subjects were analyzed according to the actual treatment received. […] This population was used for all safety analyses.

[2] = system: patients with geographic atrophy (GA) secondary to age-related macular degeneration (AMD); test: OAKS Phase 3 study: GA lesion growth in study eye by fundus autofluorescence; assay type: in vivo, human; conditions: for reduction in GA lesion growth from baseline compared to sham: over 24 months; for reduction in lesion growth in the study eye versus the untreated study eye, after adjusting for sham / reduction in lesion growth in the study eye versus the untreated study eye: bilateral GA; for reduction in lesion growth in the study eye versus the untreated study eye, after adjusting for sham / reduction in lesion growth in the study eye versus the untreated study eye / percentage reduction versus sham pooled: 18 months
[3] = system: patients with geographic atrophy (GA) secondary to age-related macular degeneration (AMD); test: DERBY and OAKS combined: safety; conditions: for CNV type on FA at eAMD study visit: Active leakage with low likelihood of CNV / CNV type on FA at eAMD study visit: Classic / CNV type on FA at eAMD study visit: Classic + occult / CNV type on FA at eAMD study visit: Occult / investigator-reported events of eAMD, double-layer sign (DLS) present in the study eye / investigator-reported events of eAMD, CNV present in the fellow eye / investigator-reported events of eAMD, CNV absent in the fellow eye / investigator-reported events of eAMD, double-layer sign (DLS) absent in the study eye: through month 18; for Investigator-determined new-onset eAMD in fellow eyes: through 18 months; for combined rate of new-onset exudations: month 24
Method: as §1, §2

patients with GA = conditions: FILLY, month 12, cited from earlier work
[4] = post-hoc quartiles of GA lesion growth over 18 months (FIG. 27)
[5] = combined, PEOM (every other month), N=21 events
[6] = combined, PM (monthly), N=26 events
[7] = combined, between months 18 and 24

Poly(oxy-1,2-ethanediyl), α-hydro-ω-hydroxy-, 15,15′-diester with N-acetyl-L-isoleucyl-L-cysteinyl-L-valyl-1-methyl-L-tryptophyl-L-glutaminyl-L-α-aspartyl-L-tryptophylglycyl-L-alanyl-L-histidyl-L-arginyl-L-cysteinyl-L-threonyl-2-[2-(2-aminoethoxy) ethoxy]acetyl-N^6-carboxy-L-lysinamide cyclic (2->12)-(disulfide) [pegcetacoplan]
Patients with new onset fellow eye eAMD ([1]; PM (monthly), through 18 months, 168 patients without baseline fellow eye CNV): 8 (4.8%) n (%)
patients with study eye investigator-determined new-onset exudative AMD ([1]; every other month, month 18, 15/212 patients): 7.1%
patients with study eye investigator-determined new-onset exudative AMD ([1]; monthly, month 18, 16/213 patients): 7.5%
reduction of GA lesion growth versus sham ([2]; EOM, months 18-24, p=0.0007): 25%
reduction in GA lesion growth from baseline compared to sham ([2]; EOM, p 0.0002 nominal): 18%
reduction in lesion growth in the study eye versus the untreated study eye, after adjusting for sham ([2]; every other month): 15%
reduction in lesion growth in the study eye versus the untreated study eye ([2]; every other month, p=0.1274): 7%
reduction in lesion growth in the study eye versus the untreated study eye, after adjusting for sham ([2]; monthly): 26%
reduction in lesion growth in the study eye versus the untreated study eye ([2]; monthly, p<0.0001): 19%
reduction in GA lesion growth versus sham ([2]; distance >250 microns, every other month, p=0.1203): 15%
reduction in GA lesion growth versus sham ([2]; distance ≤250 microns, monthly, p=0.0002): 22%
percentage reduction versus sham pooled ([2]; every other month, >50 microns, p=0.0430): 17%
percentage reduction versus sham pooled ([2]; every other month, >100 microns, p=0.0338): 18%
percentage reduction versus sham pooled ([2]; every other month, >150 microns, p=0.0575): 17%
percentage reduction versus sham pooled ([2]; every other month, >200 microns, p=0.1002): 15%
reduction in GA lesion growth vs pooled sham ([2]; every other month, month 12, p=0.0052): 16%
reduction in extrafoveal GA lesion growth vs pooled sham ([2]; every other month, month 18, p 0.0422): 17%
reduction in GA lesion growth, covariate-adjusted post-hoc analysis ([2]; every other month, month 18, p=0.0002): 18%
reduction in foveal GA lesion growth, covariate-adjusted ([2]; every other month, month 18, p=0.0008): 19%
reduction in GA lesion growth vs pooled sham ([2]; every other month, month 18, p=0.0018 nominal): 16%
reduction in foveal GA lesion growth vs pooled sham ([2]; every other month, month 18, p=0.0020): 19%
reduction in extrafoveal GA lesion growth, covariate-adjusted ([2]; every other month, month 18, p=0.0673): 15%
percentage reduction versus sham pooled ([2]; monthly, >100 microns, p<0.0001): 34%
percentage reduction versus sham pooled ([2]; monthly, >150 microns, p<0.0001): 34%
percentage reduction versus sham pooled ([2]; monthly, >200 microns, p<0.0001): 34%
percentage reduction versus sham pooled ([2]; monthly, distance to foveal center point >50 microns, p<0.0001): 33%
reduction in GA lesion growth vs pooled sham ([2]; monthly, month 12, p=0.0003): 22%
reduction in GA lesion growth, covariate-adjusted post-hoc analysis ([2]; monthly, month 18, p<0.0001): 26%
reduction in extrafoveal GA lesion growth vs pooled sham ([2]; monthly, month 18, p<0.0001): 33%
reduction in extrafoveal GA lesion growth, covariate-adjusted ([2]; monthly, month 18, p<0.0001): 33%
reduction in GA lesion growth vs pooled sham ([2]; monthly, month 18, p<0.0001 nominal): 22%
reduction in foveal GA lesion growth, covariate-adjusted ([2]; monthly, month 18, p=0.0044): 19%
reduction in foveal GA lesion growth vs pooled sham ([2]; monthly, month 18, p=0.0105): 18%
reduction of GA lesion growth versus sham ([2]; monthly, months 18-24, p=0.0080): 24%
reduction in GA lesion growth from baseline compared to sham ([2]; monthly, p<0.0001 nominal): 22%
decrease of patients in Q4 (fast progressors), relative to sham [2, 4]: 43%
increase of patients in Q1 (slow progressors), relative to sham [2, 4]: 83%
tolerability ([3]; both Phase 3 studies, 12 months): well tolerated
events of retinal vasculitis or retinal vein occlusion ([3]; combined, 12 months): No events
intraocular inflammation events ([3]; combined, 12 months, thirteen events): 0.21 % per injection
CNV type on FA at eAMD study visit: Active leakage with low likelihood of CNV [3, 5]: 0 n (%)
CNV type on FA at eAMD study visit: Classic [3, 5]: 1 (4,8%) n (%)
CNV type on FA at eAMD study visit: Classic + occult [3, 5]: 0 n (%)
CNV type on FA at eAMD study visit: Occult [3, 5]: 20 (95.2%) n (%)
Investigator-determined new-onset eAMD in fellow eyes ([3]; combined, PEOM (every other month), 339 patients without baseline fellow eye CNV): 13 (3.8%) n (%)
CNV type on FA at eAMD study visit: Active leakage with low likelihood of CNV [3, 6]: 3 (11.5%) n (%)
CNV type on FA at eAMD study visit: Classic [3, 6]: 1 (3.8%) n (%)
CNV type on FA at eAMD study visit: Classic + occult [3, 6]: 0 n (%)
CNV type on FA at eAMD study visit: Occult [3, 6]: 22 (84.6%) n (%)
Investigator-determined new-onset eAMD in fellow eyes ([3]; combined, PM (monthly), 335 patients without baseline fellow eye CNV): 12 (3.6%) n (%)
cases of endophthalmitis [3, 7]: No cases
serious adverse events of ischemic optic neuropathy [3, 7]: no serious adverse events
pooled rate of new-onset exudations (investigator-determined eAMD), patients ([3]; combined, every other month, 12 months): 4.1%
rate of new-onset exudations ([3]; combined, every other month, month 18, 26/420 patients): 6.2%
combined rate of new-onset exudations ([3]; combined, every other month): 6.7%
investigator-reported events of eAMD, double-layer sign (DLS) present in the study eye ([3]; combined, every other month, 6/73 patients): 8.2%
investigator-reported events of eAMD, CNV present in the fellow eye ([3]; combined, every other month, 8/81 patients): 9.9%
investigator-reported events of eAMD, CNV absent in the fellow eye ([3]; combined, every other month, 18/338 patients): 5.3%
investigator-reported events of eAMD, double-layer sign (DLS) absent in the study eye ([3]; combined, every other month, 20/345 patients): 5.8%
events of retinal vasculitis or retinal vein occlusion ([3]; combined, month 18): No events
rate of intraocular inflammation ([3]; combined, month 18): 0.23 % per injection
pooled rate of new-onset exudations (investigator-determined eAMD), patients ([3]; combined, monthly, 12 months): 6.0%
rate of new-onset exudations ([3]; combined, monthly, month 18, 40/419 patients): 9.5%
combined rate of new-onset exudations ([3]; combined, monthly): 11.9%
investigator-reported events of eAMD, double-layer sign (DLS) present in the study eye ([3]; combined, monthly, 8/79 patients): 10.1%
investigator-reported events of eAMD, CNV present in the fellow eye ([3]; combined, monthly, 8/84 patients): 9.5%
investigator-reported events of eAMD, CNV absent in the fellow eye ([3]; combined, monthly, 32/335 patients): 9.6%
investigator-reported events of eAMD, double-layer sign (DLS) absent in the study eye ([3]; combined, monthly, 32/336 patients): 9.5%
events of occlusive vasculitis or retinitis ([3]; combined, over 24 months): No events
rate of intraocular inflammation ([3]; combined, over 24 months): 0.24 % per injection
reduction in change from baseline in square root GA lesion size vs sham (patients with GA; every other month, p=0.067): 20%
reduction in change from baseline in square root GA lesion size vs sham (patients with GA; monthly, p=0.008): 29%
